The target of assay [1] is intranuclear protein derived from type-A influenza virus subtype H1N1 (A/Hokkaido/6-5/2014) (type-A influenza virus H1N1 …).
In assay [2] the target is recombinant nucleoprotein (NP) protein derived from influenza virus H1N1 to which a Flag tag was fus (influenza virus H1N1).
Sequence of recombinant nucleoprotein (NP) protein derived from influenza virus H1N1 to which a Flag tag was fus (influenza virus H1N1) (P03466 whole entry): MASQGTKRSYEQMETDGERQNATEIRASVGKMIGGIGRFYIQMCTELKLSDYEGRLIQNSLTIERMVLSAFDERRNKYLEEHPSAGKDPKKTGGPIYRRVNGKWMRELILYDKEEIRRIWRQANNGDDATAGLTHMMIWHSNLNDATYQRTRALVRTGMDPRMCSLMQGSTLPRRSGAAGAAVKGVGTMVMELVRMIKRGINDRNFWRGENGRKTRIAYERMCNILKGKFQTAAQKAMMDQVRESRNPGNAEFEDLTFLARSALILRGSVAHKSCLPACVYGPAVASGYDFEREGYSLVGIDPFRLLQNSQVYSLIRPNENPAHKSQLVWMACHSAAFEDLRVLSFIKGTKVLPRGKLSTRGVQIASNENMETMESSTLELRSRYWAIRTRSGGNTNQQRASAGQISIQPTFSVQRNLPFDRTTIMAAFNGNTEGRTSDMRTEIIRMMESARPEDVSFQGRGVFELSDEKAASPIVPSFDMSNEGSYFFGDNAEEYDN

B1: VHH antibody consisting of the amino acid sequence represented by SEQ ID NO: 8 (VHH)
VHH: EVQLVESGGGLVQPGGSLSLSCAASGFTFSNYYMGWFRQAPGKERQSLATVNSGGTGEAYADSIRGRFTISRDNAKNTVTLQMSSLQPEDTAVYYCARVDGRVLSTIVVSYDYWGQGTQVTVSS
Regarding B1, the “EC50 (read off the curve)” value in assay [1] is roughly 8 ng/mL. Also, the Kd in assay [2] stood at 0.201 nM.

(Values after patent publication US20200291098A1 (PANASONIC INTELLECTUAL PROPERTY MANAGEMENT, published 2020).)
